In assay [1] the target is SARS-CoV-2 wild type spike protein (on reporter virus particles) (SARS-CoV-2, UniProt P0DTC2 14-1273). In words: cell-based or functional assay.
The target of another assay is SARS-CoV-2 Spike S1-His (SARS-CoV-2, UniProt P0DTC2 16-685). In words: Octet BLI, IgG, monovalent. In general terms: Biolayer interferometry detects binding as a change in optical thickness at a sensor tip.
Another assay has as its target SARS-CoV1 Spike [change] (SARS-CoV-1, UniProt P59594 14-667). In words: Octet BLI, IgG, monovalent.

B1: A-21 (antibody, V domains shown)
VH: EVQLVESGGGLVQPGGSLRLSCAASGFTFSRYWMHWVRQAPGKGLVWVSRINSDGSSTTYADSVKGRFTISRDNAKNTLYLQMNSLRAEDTAVYYCARELYYYDSRGAEEGEGWFDPWGQGTLVTVSS
VL: QSVLTQPPSVSGAPGQRVTISCTGISSNIGAGYDVHWYQQLPGTAPKLLIYGNSNRPSGVPDRFSASKSGTSAPLAITGLQAEDEADYYCQSSDRSLSGSVFGTGTKVTVL
B1: the “WT PsV IC50” value in assay [1] was 2.78 nM. The figures for the dissociation constant Kd with SARS-CoV-2 Spike S1-His and in the assay with SARS-CoV1 Spike [change] were 0.529 nM and 9.03 nM, respectively.

B2: A-21.3 (antibody, V domains shown)
VH: EVQLVESGGGLVQPGGSLRLSCAASGFTFRRYWMHWVRQAPGKGLEWVSRINSDGSSTTYADSVEGRFTISRDNAKNTLYLQMNSLRAEDTAVYYCARELYYYDRRGAEEGEGWFDPWGQGTLVTVSS
VL: QSVLTQPPSVSGAPGQRVTISCTGISSNIGAEYDVHWYQQLPGTAPKLLIYGNSNRPRGVPDRFSASKSGTSAPLAITGLQAEDEADYYCQVSDRYLSGSVFGTGTKVTVL
In the case of B2, the “WT PsV IC50” value in assay [1] was 0.946 nM. In addition, the Kd (in general, the free concentration of one partner at which half of the binding sites on the other are occupied at equilibrium, for simple one-to-one binding) with SARS-CoV-2 Spike S1-His was found to be 0.241 nM; with SARS-CoV1 Spike [change], 0.893 nM.

B3: A-21.2 (antibody, V domains shown)
VH: EVQLVESGGGLVQPGGSLRLSCAASGFTFSRYWMHWVRQAPGKGLVWVSRINSDGSSTTYADSVKGRFTISRDNAKNTLYLQMNSLRAEDTAVYYCARELYYYDSRGAEEGEGWFDPWGQGTLVTVSS
VL: QSVLTQPPSVSGAPGQRVTISCTGISSNIGAQYDVHWYQQLPGTAPKLLIYGNSNRPRGVPDRFSASKSGTSAPLAITGLQAEDEADYYCQSSDRSVSGSVFGTGTKVTVL
With B3, the “WT PsV IC50” value in assay [1] stood at 2.63 nM. The Kd came out at 0.195 nM with SARS-CoV-2 Spike S1-His and 7.93 nM with SARS-CoV1 Spike [change].

B4: A-23 (antibody, V domains shown)
VH: EVQLVESGGGLVQPGRSLRLSCAASGFTFDDYAMHWVRQAPGKGLEWVSGISWNSGTIGYADSVKGRFIISRDNAKNSLYLQMNSLRGEDMALYYCGKDRKREDPSLGGMDVWGQGTTVTVSS
VL: SYVLTQPPSVSVAPGQTARITCGGNNIGSKSVHWYQQKPGQAPVLVVYDDTDRPSGIPERFSGSNSGNTATLTISRVEAGDEADYYCQVWDSSSDHYVFGTGTKVTVL
In the case of B4, in assay [1], the “WT PsV IC50” value stood at 0.539 nM. Also, in the assay with SARS-CoV-2 Spike S1-His, the Kd was 2.11 nM. For the same molecule, in the assay with SARS-CoV1 Spike [change], the binding result is listed as “no binding”.

B5: A-23.1 (antibody, V domains shown)
VH: EVQLVESGGGLVQPGRSLRLSCAASGFTIDDYAMHWVRQAPGKGLEWVSGISWNGGTIGYADSVKGRFIISRDNAKNSLYLQMNSLRGEDMALYYCGKDRKREDPSLGGMDVWGQGTTVTVSS
VL: SYVLTQPPSVSVAPGQTARITCLGNNIGSKSVHWYQQKPGQAPVLVVYDDTDRPSGIPERFSGSNSGNTATLTISRVEAGDEADYYCQVWDSESDHYVFGTGTKVTVL
In the case of B5, the “WT PsV IC50” value in assay [1] was determined as 0.423 nM. Moreover, binding with SARS-CoV-2 Spike S1-His was put at a Kd of 0.829 nM. In the assay with SARS-CoV1 Spike [change], the binding result is recorded as “no binding”.

B6: A-20.2 (antibody, V domains shown)
VH: QVQLVQSGGGVVQPGRSLRLSCAASGFTFDNFAMHWVRQAPGKGLEWVAVIEYDGINKYYADSVKGRFTISRGNSKNTLSLQMNSLRAEDTAVYYCARAQNYYDRYGTLQLDAFDIWGQGTLVTVSS
VL: AIQMTQSPSSLSASVGDRVTITCRASQGIRNDLGWYQQKPGKAPKLLIYDASSLQSGVPSRFSGSGSGTDFTLTISSLQPEDFATYYCLQDYNYPLTFGGGTKVEIK
In the case of B6, the “WT PsV IC50” value in assay [1] is 1.06 nM. In addition, the Kd in the assay with SARS-CoV-2 Spike S1-His amounted to 0.293 nM; in the assay with SARS-CoV1 Spike [change], 1.74 nM.

B7: A-20.3 (antibody, V domains shown)
VH: QVQLVQSGGGVVQPGRSLRLSCAASGFTFDNFAMHWVRQAPGKGLEWVAVILYDGINDYYADSVKGRFTISRGNSKNTLSLQMNSLRAEDTAVYYCARAQNYYDRHGTLQLDAFDIWGQGTLVTVSS
VL: AIQMTQSPSSLSASVGDRVTITCRASDGIRNDLGWYQQKPGKAPKLLIYEASSLQSGVPSRFSGSGSGTDFTLTISSLQPEDFATYYCLQNYNYPLTFGGGTKVEIK
For the molecule B7, the “WT PsV IC50” value in assay [1] worked out at 1.51 nM. Further, the Kd stood at 0.366 nM with SARS-CoV-2 Spike S1-His and 3.52 nM with SARS-CoV1 Spike [change].

For the origin of these results see patent US20260217797A1 (Takeda / Millennium, published 2026).
